Legend:
[1] = molecular target: Full-length Cyno OX40 (cynomolgus monkey); assay: flow cytometry (GUAVA Easycyte), antibody at 1:30 dilution, CHO clone OXF004a_11H7 expressing cynomolgus OX40
[2] = molecular target: Full-length Human OX40 (human) (UniProt P43489); assay: flow cytometry (GUAVA Easycyte), antibody at 1:30 dilution, CHO clone OXF001a_9G10 expressing human OX40
[3] = molecular target: Full-length Human OX40 (human) (UniProt P43489); assay: flow cytometry (GUAVA Easycyte), antibody at 1:30 dilution, CHO clone OXF001a_6B1 expressing human OX40

Full-length Human OX40 (human), sequence (P43489 29-277): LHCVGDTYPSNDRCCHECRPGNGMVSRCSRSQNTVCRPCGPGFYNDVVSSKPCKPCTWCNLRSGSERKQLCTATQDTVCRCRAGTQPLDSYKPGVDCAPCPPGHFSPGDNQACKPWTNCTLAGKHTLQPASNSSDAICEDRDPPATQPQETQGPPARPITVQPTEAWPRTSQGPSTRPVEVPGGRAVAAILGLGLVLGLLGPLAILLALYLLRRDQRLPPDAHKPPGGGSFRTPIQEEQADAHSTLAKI
Full-length Cyno OX40 (cynomolgus monkey), sequence (P43489 other isoform, or with tags, fused parts or gaps): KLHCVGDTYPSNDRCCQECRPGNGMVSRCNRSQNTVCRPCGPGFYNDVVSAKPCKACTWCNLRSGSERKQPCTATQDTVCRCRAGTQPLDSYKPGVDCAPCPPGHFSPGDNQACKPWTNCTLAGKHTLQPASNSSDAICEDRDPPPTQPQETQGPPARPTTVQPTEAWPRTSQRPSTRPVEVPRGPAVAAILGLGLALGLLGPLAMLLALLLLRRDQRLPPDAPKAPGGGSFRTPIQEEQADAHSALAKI

antibody to human OX40 (clone L106, BD Biosciences)
MFI [1]: 456
MFI [2]: 230
MFI [3]: 211

Reference: patent US20220242962A1
